Experimental data as given in US20240254193A1.
Residue numbers refer to the chain shown, from its start.

B1: super-TRAIL AX-1632, P50591 114-281 (ligand)
chain: VRERGPQRVAAHITGTRGRSNTLSSPNSKNEKALGRKINSWESSRSGHSFLSNLHLRNGELVIHEKGFYYIYSQTYFRFQEEIKENTKNDKQMVQYIYKYTSYPDPILLMKSARNSCWSKDAEYGLYSIYQGGIFELKENDRIFVSVTNEHLIDMDHEASFFGAFLVGGGGGGGGGGVAAHITGTRGRSNTLSSPNSKNEKALGRKINSWESSRSGHSFLSNLHLRNGELVIHEKGFYYIYSQTYFRFQEEIKENTKNDKQMVQYIYKYTSYPDPILLMKSARNSCWSKDAEYGLYSIYQGGIFELKENDRIFVSVTNEHLIDMDHEASFFGAFLVG
B2: super-TRAIL AX-1620, P50591 114-281 (ligand)
chain: VRERGPQRVAAHITGTRGRSNTLSSPNSKNEKALGRKINSWESSRSGHSFLSNLHLRNGELVIHEKGFYYIYSQTYFRFQEEIKENTKNDKQMVQYIYKYTSYPDPILLMKSARNSCWSKDAEYGLYSIYQGGIFELKENDRIFVSVTNEHLIDMDHEASFFGAFLVGGGGSGGGGSGGGSGGVAAHITGTRGRSNTLSSPNSKNEKALGRKINSWESSRSGHSFLSNLHLRNGELVIHEKGFYYIYSQTYFRFQEEIKENTKNDKQMVQYIYKYTSYPDPILLMKSARNSCWSKDAEYGLYSIYQGGIFELKENDRIFVSVTNEHLIDMDHEASFFGAFLVG
B3: super-TRAIL AX-1623, P50591 114-281 (ligand)
chain: VRERGPQRVAAHITGTRGRSNTLSSPNSKNEKALGRKINSWESSRSGHSFLSNLHLRNGELVIHEKGFYYIYSQTYFRFQEEIKENTKNDKQMVQYIYKYTSYPDPILLMKSARNSCWSKDAEYGLYSIYQGGIFELKENDRIFVSVTNEHLIDMDHEASFFGAFLVGGGGSGGGGVAAHITGTRGRSNTLSSPNSKNEKALGRKINSWESSRSGHSFLSNLHLRNGELVIHEKGFYYIYSQTYFRFQEEIKENTKNDKQMVQYIYKYTSYPDPILLMKSARNSCWSKDAEYGLYSIYQGGIFELKENDRIFVSVTNEHLIDMDHEASFFGAFLVG
B4: super-TRAIL AX-1630, P50591 114-281 (ligand)
chain: B3 chain with S172G
B5: super-TRAIL AX-1611, P50591 114-281 (ligand)
chain: VRERGPQRVAAHITGTRGRSNTLSSPNSKNEKALGRKINSWESSRSGHSFLSNLHLRNGELVIHEKGFYYIYSQTYFRFQEEIKENTKNDKQMVQYIYKYTSYPDPILLMKSARNSCWSKDAEYGLYSIYQGGIFELKENDRIFVSVTNEHLIDMDHEASFFGAFLVGGGGGGVAAHITGTRGRSNTLSSPNSKNEKALGRKINSWESSRSGHSFLSNLHLRNGELVIHEKGFYYIYSQTYFRFQEEIKENTKNDKQMVQYIYKYTSYPDPILLMKSARNSCWSKDAEYGLYSIYQGGIFELKENDRIFVSVTNEHLIDMDHEASFFGAFLVG
B6: super-TRAIL AX-1606, P50591 120-281 (ligand)
chain: QRVAAHITGTRGRSNTLSSPNSKNEKALGRKINSWESSRSGHSFLSNLHLRNGELVIHEKGFYYIYSQTYFRFQEEIKENTKNDKQMVQYIYKYTSYPDPILLMKSARNSCWSKDAEYGLYSIYQGGIFELKENDRIFVSVTNEHLIDMDHEASFFGAFLVGGGGSGGGGSGGQRVAAHITGTRGRSNTLSSPNSKNEKALGRKINSWESSRSGHSFLSNLHLRNGELVIHEKGFYYIYSQTYFRFQEEIKENTKNDKQMVQYIYKYTSYPDPILLMKSARNSCWSKDAEYGLYSIYQGGIFELKENDRIFVSVTNEHLIDMDHEASFFGAFLVG
B7: super-TRAIL AX-1618, P50591 114-281 (ligand)
chain: VRERGPQRVAAHITGTRGRSNTLSSPNSKNEKALGRKINSWESSRSGHSFLSNLHLRNGELVIHEKGFYYIYSQTYFRFQEEIKENTKNDKQMVQYIYKYTSYPDPILLMKSARNSCWSKDAEYGLYSIYQGGIFELKENDRIFVSVTNEHLIDMDHEASFFGAFLVGGGGSGGGGSGGVAAHITGTRGRSNTLSSPNSKNEKALGRKINSWESSRSGHSFLSNLHLRNGELVIHEKGFYYIYSQTYFRFQEEIKENTKNDKQMVQYIYKYTSYPDPILLMKSARNSCWSKDAEYGLYSIYQGGIFELKENDRIFVSVTNEHLIDMDHEASFFGAFLVG
B8: super-TRAIL AX-1621, P50591 114-281 (ligand)
chain: VRERGPQRVAAHITGTRGRSNTLSSPNSKNEKALGRKINSWESSRSGHSFLSNLHLRNGELVIHEKGFYYIYSQTYFRFQEEIKENTKNDKQMVQYIYKYTSYPDPILLMKSARNSCWSKDAEYGLYSIYQGGIFELKENDRIFVSVTNEHLIDMDHEASFFGAFLVGGGGSGGVAAHITGTRGRSNTLSSPNSKNEKALGRKINSWESSRSGHSFLSNLHLRNGELVIHEKGFYYIYSQTYFRFQEEIKENTKNDKQMVQYIYKYTSYPDPILLMKSARNSCWSKDAEYGLYSIYQGGIFELKENDRIFVSVTNEHLIDMDHEASFFGAFLVG
B9: super-TRAIL AX-1631, P50591 114-281 (ligand)
chain: B8 chain with S172G
B10: super-TRAIL AX-1622, P50591 114-281 (ligand)
chain: VRERGPQRVAAHITGTRGRSNTLSSPNSKNEKALGRKINSWESSRSGHSFLSNLHLRNGELVIHEKGFYYIYSQTYFRFQEEIKENTKNDKQMVQYIYKYTSYPDPILLMKSARNSCWSKDAEYGLYSIYQGGIFELKENDRIFVSVTNEHLIDMDHEASFFGAFLVGGGGSGGGVAAHITGTRGRSNTLSSPNSKNEKALGRKINSWESSRSGHSFLSNLHLRNGELVIHEKGFYYIYSQTYFRFQEEIKENTKNDKQMVQYIYKYTSYPDPILLMKSARNSCWSKDAEYGLYSIYQGGIFELKENDRIFVSVTNEHLIDMDHEASFFGAFLVG

Each binder was assayed against TRAIL receptors (assay: cell-based or functional assay).

EC50 measured by use of L929 cells [ng/mL]	fold enhanced activity to induce apoptosis in L929 cells compared with wild type TRAIL [fold]	Binder	EC50, viability of H460 cells by MTS assay [ng/mL]	EC50, viability of RPMI-8226 cells by MTS assay [ng/mL]
1.1	–	B1	–	–
2.1	–	B2	–	–
0.88	–	B3	–	–
0.78	–	B4	–	–
0.85	30	B5	54.7	15.4
1.05	–	B6	–	–
1.5	–	B7	–	–
0.95	–	B8	–	–
1.2	–	B9	–	–
5.3	–	B10	–	–
